{"source": "paper PMC10046250", "biological_target": "T1, mouse cholecystokinin 1 receptor (mouse (endogenous in isolated mouse pancreatic acini)) (UniProt O08786)", "T1 sequence": "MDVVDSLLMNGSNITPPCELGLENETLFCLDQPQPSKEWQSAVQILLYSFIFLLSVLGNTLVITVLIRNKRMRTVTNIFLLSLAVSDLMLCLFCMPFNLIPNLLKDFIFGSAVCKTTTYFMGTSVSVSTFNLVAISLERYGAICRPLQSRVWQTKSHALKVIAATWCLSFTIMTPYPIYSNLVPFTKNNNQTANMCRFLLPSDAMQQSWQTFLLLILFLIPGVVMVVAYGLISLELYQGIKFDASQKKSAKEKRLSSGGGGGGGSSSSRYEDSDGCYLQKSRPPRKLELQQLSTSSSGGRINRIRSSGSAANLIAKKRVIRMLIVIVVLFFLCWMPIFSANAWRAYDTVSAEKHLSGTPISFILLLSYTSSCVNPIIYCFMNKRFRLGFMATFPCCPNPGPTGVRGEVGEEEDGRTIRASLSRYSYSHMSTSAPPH", "note": "Where no end group is shown, it is not given here. [ ]: non-standard residue; d: D form. sY = N[C@@H](Cc1ccc(OS(=O)(=O)O)cc1)C(=O)O", "data": [{"binder": "D[sY]MGWMDF-NH2 (ends and bridges not checked)", "note": "[Sulfated cholecystokinin octapeptide]", "values": [{"measurement": "CCK concentration needed to induce regular cytosolic calcium oscillations (Fura-2 imaging) in perifused isolated mouse pancreatic acini (data in Figure S1)", "result": 10, "unit": "pM"}]}]}
